The assay deals with HER2 (extracellular domain only), soluble, recombinantly expressed, biotinylated (human) (UniProt P04626). Briefly: BLI; Octet Red; biotinylated HER2 (10 μg/ml) loaded on streptavidin biosensors, DARPins in solution (eight concentrations, highest 50 nM); PBS pH 7.4, 0.01% BSA, 0.01% Tween 20; 1:1 Langmuir model, global kinetic fit.

B1: DARPin F1 (designed binder)
chain: DLGKKLLEAARAGEDDEVRVLMANGADVNAKDEYGLAPLYHATAHGHLEIVEVLLKNGADVNAVDAIGFTPLHLAAFIGHLEIAEVLLRHGADVNAQDKFGKTAFDISIDNVNEDLAEILQKL
notes: source: E. coli M15 (pQE30), purified (His trap; SEC on Superdex 75 for large scale); not shown: His6, N-terminal, kept
Turning to B1, the Kd stood at 0.39 nM, the koff was found to be 0.00037 s⁻¹ and the kon came out at 950000 M⁻¹ s⁻¹.
